For one assay, the target named is porcine CSF1R (porcine) (UniProt K9IVS4). Description: cell-based or functional assay.
A further assay addresses chicken CSF1R (chicken). Description: cell-based or functional assay.

In the assay with porcine CSF1R (porcine), “recombinant porcine CSF1 (from UniProt A0A287BPE2 36-189) (ligand)” came in with a survival/proliferation of BaF/3 cells expressing porcine CSF1R (Cell TiterGlo), EC50 of 30 ng/mL. Still for that read-out and setting: the same measure for “recombinant human CSF1 (Sigma 6518) (from UniProt P09603 33-190) (ligand)”: 30 ng/mL. “recombinant chicken CSF1 (active fragment of chicken CSF-1, expressed in E. coli from pTLW54, refolded) (ligand)” yielded a survival/proliferation of BaF/3 cells expressing chicken CSF1R (Cell TiterGlo), EC50 with chicken CSF1R (chicken) of 20 ng/mL.
